Test results published in the supplement of paper PMC10126150.
± gives the standard deviation of the averaged measurements.

test system: ATP; assay: switch fluorescence ratio, 500 uM ATP over buffer (Cy3 cluster intensity, sum of 5 cycles each) (fold (ratio)); higher = stronger signal-on switching upon ATP binding; sequences stand for … in TCGTCGGCAGCGTCAGATGTGTATAAGAGACAGTTTTTTTTTTTTTTTTTTTTTTTTT…TC; settings: aptamer strand: ATP DNA aptamer (quencher-CACCTGGGGGAGTATTGCGGAGGAAGG + anchor), 100 nM annealed; ATP concentration: 500 uM
How it was run: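 Exposure to 500 uM ATP lasted 15 min at 22 °C before imaging, and a selection-buffer image was taken beforehand, for Cy3-labelled switching-strand clusters on a modified Illumina MiSeq flow-cell annealed to 100 nM quencher-labelled ATP aptamer. Five buffer/ATP cycles were run with NaOH stripping and re-annealing between them. The fluorescence ratio per cluster is summed target-cycle over summed buffer-cycle Cy3 intensity, averaged per switch-domain sequence. Clusters outside 100-1000 RFU were excluded.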

Sequence | switch fluorescence ratio
GTTTGGAGTG | 1 ± 0.041
GTTTGGGGCA | 0.994 ± 0.033
GTTTGGGGCG | 1.01 ± 0.035
GTTTGGGGCT | 0.989 ± 0.019
GTTTGGGGGT | 1.04 ± 0.12
GTTTGGGTGC | 1.072 ± 0.0055
GTTTGGGTTA | 1.01 ± 0.016
GTTTGGTGC | 1.02 ± 0.022
GTTTGTAACG | 1.02 ± 0.015
GTTTGTACCT | 1.13 ± 0.1
GTTTGTACGA | 0.97621 ± 0.0002
GTTTGTTCGC | 0.997 ± 0.076
GTTTGTTTTT | 0.976 ± 0.032
GTTTTAAAAG | 0.979 ± 0.01
GTTTTAAGCT | 1.023 ± 0.0058
GTTTTACGTG | 0.998 ± 0.024
GTTTTAGCGG | 0.964 ± 0.027
GTTTTAGCTT | 1 ± 0.011
GTTTTAGTGG | 0.9867 ± 0.0089
GTTTTATGTA | 1.025 ± 0.0069
GTTTTATTAT | 1.017 ± 0.0017
GTTTTCGGCC | 0.996 ± 0.029
GTTTTCGGCG | 0.981 ± 0.035
GTTTTGAACA | 0.983 ± 0.034
GTTTTGATCA | 1 ± 0.016

Sequence | switch fluorescence ratio
GTTTTGCATA | 1.01 ± 0.028
GTTTTGCCTC | 0.984 ± 0.01
GTTTTGCGAA | 0.9957 ± 0.0086
GTTTTGGCTT | 0.983 ± 0.021
GTTTTGGGTG | 1.09 ± 0.058
GTTTTGGGTT | 0.977 ± 0.017
GTTTTGGTAT | 1.01 ± 0.0052
GTTTTGGTG | 1.08 ± 0.12
GTTTTGGTGG | 0.998 ± 0.029
GTTTTGGTTA | 1.01 ± 0.014
GTTTTGTTGA | 1.02 ± 0.021
GTTTTGTTTT | 0.9758 ± 0.0063
GTTTTTAAGA | 1.03 ± 0.022
GTTTTTAGAC | 1.03 ± 0.014
GTTTTTAGT | 1.006 ± 0.0027
GTTTTTCCTT | 0.998 ± 0.022
GTTTTTCGGT | 0.981 ± 0.026
GTTTTTG | 0.984 ± 0.031
GTTTTTGAAA | 0.982 ± 0.037
GTTTTTGGTG | 1 ± 0.018
GTTTTTTAAT | 1.015 ± 0.0061
GTTTTTTCTT | 0.971 ± 0.051
GTTTTTTGAA | 0.9764 ± 0.0021
GTTTTTTGCC | 1 ± 0.034
GTTTTTTGTA | 0.994 ± 0.022

Sequence | switch fluorescence ratio
GTTTTTTTTA | 0.989 ± 0.037
TAAAAAACCT | 1.57 ± 0.39
TAAAAAATAC | 1.67 ± 0.74
TAAAAAGTGG | 0.976 ± 0.038
TAAAAAGTTT | 0.997 ± 0.03
TAAAAATGTT | 0.988 ± 0.021
TAAAACCCGC | 1.05 ± 0.032
TAAAACCGGT | 1.02 ± 0.018
TAAAAGAAGA | 0.962 ± 0.016
TAAAAGACCG | 1.077 ± 0.007
TAAAAGACGG | 1.08 ± 0.056
TAAAAGCCTT | 1.06 ± 0.043
TAAAAGCTTT | 1.02 ± 0.029
TAAAAGGACC | 1.09 ± 0.023
TAAAAGGGAT | 1.01 ± 0.023
TAAAAGGTTG | 0.989 ± 0.033
TAAAAGGTTT | 1 ± 0.032
TAAAAGTATA | 0.985 ± 0.018
TAAAAGTTTT | 1.01 ± 0.011
TAAAATAAAG | 0.993 ± 0.033
TAAAATACTT | 1.11 ± 0.16
TAAAATATTT | 1.05 ± 0.069
TAAAATCAGT | 0.992 ± 0.046
TAAAATGCGT | 0.99954 ± 0.00034
TAAAATGTGA | 0.963 ± 0.021

Sequence | switch fluorescence ratio
TAAAATTATA | 1.02 ± 0.021
TAAAATTTAG | 1 ± 0.04
TAAAATTTAT | 0.994 ± 0.028
TAAAATTTGT | 1.01 ± 0.05
TAAACCGCGG | 1.01 ± 0.059
TAAACGGGGA | 0.986 ± 0.057
TAAACGGTCA | 1.07 ± 0.022
TAAAGAAAAG | 0.988 ± 0.011
TAAAGAAGAG | 0.977 ± 0.03
TAAAGAGTAG | 1 ± 0.042
TAAAGATGAT | 1.01 ± 0.012
TAAAGCCGGT | 1.009 ± 0.0023
TAAAGCGCGG | 1.074 ± 0.0037
TAAAGGAAAA | 1.01 ± 0.015
TAAAGGACGG | 1.01 ± 0.038
TAAAGGAGGT | 1.01 ± 0.046
TAAAGGATCC | 1.02 ± 0.041
TAAAGGATTC | 0.979 ± 0.045
TAAAGGCGCG | 0.985 ± 0.012
TAAAGGCGGT | 0.983 ± 0.042
TAAAGGGAAA | 1.26 ± 0.37
TAAAGGGAGT | 1 ± 0.024
TAAAGGGATT | 0.994 ± 0.032
TAAAGGGGCT | 1.04 ± 0.049
TAAAGGGGGA | 0.983 ± 0.039

Sequence | switch fluorescence ratio
TAAAGGGTAT | 0.988 ± 0.032
TAAAGGTTAC | 1.03 ± 0.028
TAAAGTGTGC | 0.9727 ± 0.0042
TAAAGTGTGG | 0.992 ± 0.027
TAAATAGCTT | 1.08 ± 0.17
TAAATAGGGA | 1.01 ± 0.03
TAAATATCGT | 1 ± 0.013
TAAATATTGT | 1.01 ± 0.016
TAAATATTTA | 0.976 ± 0.05
TAAATCGGGA | 0.9928 ± 0.0037
TAAATCGGGT | 1 ± 0.013
TAAATGAAGG | 1.04 ± 0.048
TAAATGCGCC | 1.09 ± 0.022
TAAATGGAA | 1 ± 0.024
TAAATGGGTT | 1 ± 0.027
TAAATGGTTC | 0.969 ± 0.027
TAAATGTGTA | 1.01 ± 0.036
TAAATTAAGT | 1.03 ± 0.029
TAAATTATGG | 0.996 ± 0.021
TAAATTATTT | 0.999 ± 0.023
TAAATTTAGG | 0.989 ± 0.02
TAAATTTTGT | 1.02 ± 0.039
TAACAATCGC | 1.06 ± 0.038
TAACACCGGC | 1.06 ± 0.025
TAACACGAAT | 1.01 ± 0.0083

Sequence | switch fluorescence ratio
TAACACGGGA | 1.037 ± 0.003
TAACATCTTT | 1.03 ± 0.013
TAACATGAAG | 1.004 ± 0.0073
TAACCCCGCT | 1.42 ± 0.25
TAACCGGTGC | 1.065 ± 0.01
TAACCTATCT | 1.04 ± 0.033
TAACCTGGAG | 1.18 ± 0.028
TAACCTTTAA | 1.04 ± 0.02
TAACGATGGG | 1.014 ± 0.01
TAACGCATCG | 0.9887 ± 0.0012
TAACGGCGGT | 0.978 ± 0.021
TAACGGGAAT | 0.99 ± 0.02
TAACGGGGCG | 1.01 ± 0.049
TAACGGGGGT | 1.02 ± 0.062
TAACGGGGTA | 1.01 ± 0.02
TAACGTTTTC | 0.983 ± 0.06
TAACGTTTTT | 1.1 ± 0.024
TAACTAATAA | 1.01 ± 0.018
TAACTAATTT | 1.03 ± 0.017
TAACTCTTTT | 0.978 ± 0.044
TAACTGGCTT | 1.01 ± 0.036
TAACTGTCTT | 0.966 ± 0.013
TAAGAAAAAT | 1.062 ± 0.0081
TAAGAAAGGG | 0.9572 ± 0.0095
TAAGAAGTCG | 0.9751 ± 0.0023

Sequence | switch fluorescence ratio
TAAGAGGA | 0.991 ± 0.015
TAAGAGGCGG | 1.01 ± 0.052
TAAGATAAAA | 1.02 ± 0.017
TAAGATGATC | 0.988 ± 0.048
TAAGATGTAA | 1.03 ± 0.011
TAAGCAAATG | 1.038 ± 0.0072
TAAGCAGGGC | 1.068 ± 0.0043
TAAGCAGTTT | 1.038 ± 0.0027
TAAGCGGGGT | 1.012 ± 0.008
TAAGCGGTTG | 0.989 ± 0.016
TAAGCTCGTG | 0.97 ± 0.019
TAAGCTGGCT | 1.025 ± 0.0092
TAAGCTGTGG | 1.02 ± 0.028
TAAGGAGCGG | 0.976 ± 0.013
TAAGGAGTTC | 0.965 ± 0.021
TAAGGCGAGT | 1.03 ± 0.052
TAAGGGAACC | 1.01 ± 0.044
TAAGGGAATC | 1.2 ± 0.31
TAAGGGAGTG | 0.976 ± 0.031
TAAGGGCGCG | 1.03 ± 0.035
TAAGGGCTGA | 1.01 ± 0.011
TAAGGGGGAT | 1.021 ± 0.0082
TAAGGGGGGC | 0.98 ± 0.029
TAAGGGGTAT | 0.985 ± 0.032
TAAGGGGTGG | 0.969 ± 0.028

Sequence | switch fluorescence ratio
TAAGGGTGTG | 1 ± 0.023
TAAGGGTTTC | 1.02 ± 0.066
TAAGGTCATA | 1.034 ± 0.0067
TAAGGTCCGA | 1.021 ± 0.0077
TAAGGTCGGT | 0.966 ± 0.018
TAAGGTGGCC | 1.01 ± 0.013
TAAGGTGGCT | 1.01 ± 0.043
TAAGGTGGGG | 0.987 ± 0.021
TAAGGTGTGA | 1.02 ± 0.038
TAAGGTTGGG | 0.993 ± 0.021
TAAGGTTTGT | 0.988 ± 0.021
TAAGTAGGGC | 1.2 ± 0.18
TAAGTATGTC | 0.995 ± 0.01
TAAGTCATGG | 0.9922 ± 0.0078
TAAGTCATTG | 0.985 ± 0.049
TAAGTCGGAA | 0.996 ± 0.022
TAAGTGACCG | 1.07 ± 0.018
TAAGTGGAC | 1.039 ± 0.0089
TAAGTGGG | 0.9621 ± 0.0055
TAAGTGTGTG | 0.975 ± 0.021
TAAGTGTTTT | 0.994 ± 0.023
TAAGTTAGGG | 0.972 ± 0.029
TAAGTTCCTG | 1 ± 0.026
TAAGTTCGCA | 1.05 ± 0.024
TAAGTTGGGT | 0.994 ± 0.042
